# According to US20220089758A1 (REVMAB BIOSCIENCES USA, published 2022):
# Numbering of substitutions follows the chain as printed.
# B1: Antibody clone 6 (antibody, V domains shown)
# VH: QSLEESGGRLVTPGTPLTLTCTASGFDFSRYHMCWVRQAPGKGLEWIGIIYVSDNTYYATWAKGRFTISRTSTTVDLKITSPTTEDTATYFCVRVGSFWSSKLWGPGTLVTVSS
# VL: DVVMTQTPASVSEPVGGTVTINCQASENIYSSLAWYQQKPGQPPKLLIYEASNLESGVSSRFSGSGSGTEFTLTISDLECADAATYYCQSTYFGNSYVFAFGGGTEVVVK
# notes: Rabbit monoclonal antibody; also called 6H2/6L2
# B2: Antibody clone 5 (antibody, V domains shown)
# VH: QSVKESGGGLFKPTDTLTLTCTVSGFSLSSNAISWVRQAPGKGLEWIGIIYASGDTYYASWAKGRFTISKTSSTTVDLKMTSLTTEGTATYFCARGYTTLYFWGPGTLVTVSS
# VL: QIVMTQTPASVSAAVGGTVTIKCQASESISTRLAWYQQKPGQPPKLLIYSASTLPSGVPSRFSGSGSGTDFTLTISGVQCDDAATYYCQGGYSSGAGTAFGGGTEVVVK
# notes: Rabbit monoclonal antibody; also called 5H2/5L2
# B3: APX005M (antibody, V domains shown)
# VH: QVQLVESGGGVVQPGRSLRLSCAASGFSFSSTYVCWVRQAPGKGLEWIACIYTGDGTNYSASWAKGRFTISKDSSKNTVYLQMNSLRAEDTAVYFCARPDITYGFAINFWGPGTLVTVSS
# VL: DIQMTQSPSSLSASVGDRVTIKCQASQSISSRLAWYQQKPGKPPKLLIYRASTLASGVPSRFSGSGSGTDFTLTISSLQPEDVATYYCQCTGYGISWPIGGGTKVEIK
# B4: Antibody clone 5-z (antibody, V domains shown)
# VH: EVQLVESGGGLVQPGGSLRLSCAASGFSLSSNAISWVRQAPGKGLEWVGIIYASGDTYYASWAKGRFTISRDNSKNTLYLQMNSLRAEDTAVYYCARGYTTLYFWGQGTLVTVSS
# VL: DIQMTQSPSSVSASVGDRVTITCQASESISTRLAWYQQKPGKAPKLLIYSASTLPSGVPSRFSGSGSGTDFTLTISSLQPEDFATYYCQGGYSSGAGTAFGGGTKVEIK
# notes: Humanized antibody based on clone 5; also called 5H2-z/5L2-z
# B5: Antibody clone 6-z (antibody, V domains shown)
# VH: EVQLVESGGGLVQPGGSLRLSCAASGFDFSRYHMSWVRQAPGKGLEWVGIIYVSDNTYYATWAKGRFTISRDNSKNTLYLQMNSLRAEDTAVYYCVRVGSFWSSKLWGQGTLVTVSS
# VL: DIQMTQSPSTLSASVGDRVTITCQASENIYSSLAWYQQKPGKAPKLLIYEASNLESGVPSRFSGSGSGTEFTLTISSLQPDDFATYYCQSTYFGNSYVFAFGGGTKVEIK
# notes: Humanized antibody based on clone 6; also called 6H2-z/6L2-z
# B6: Antibody clone 233 (antibody, V domains shown)
# VH: QEQLVESGGGLVQPEGSLTLTCTASGFSFSYYSWACWVRQAPGKGLEWIACIDGGGSRATYYASWAKGRFTISTTSSTTVTLQMTSLTAADTATYFCSRSDYNGYISYFDLWGPGTLVTVSS
# VL: AFELTQTPSSVEAAVGGTVTINCQASQSIRSDLAWYQQKPGQPPKLLIYKASTLASGVPSRFRGSGSGTEYTLTISDLECADAATYYCQSYYHSSSTAFGGGTEVVVK
# notes: Rabbit monoclonal antibody; also called 233H1/233L1
# B7: Antibody clone 166 (antibody, V domains shown)
# VH: B1 VH with F28L, C34N, N55D, T56S, T60S, R70K, T74A, V93A, F98V
# VL: B1 VL with N22K, S31N, S32N, E50R, N53T, S59P, S63K, N95G
# notes: Rabbit monoclonal antibody; also called 166H2/166L1
# B8: Antibody clone 151 (antibody, V domains shown)
# VH: QSVEESGGRLVTPGTPLTLTCTVSGFSLSSNAISWVRQAPGKGLEWIGVIDAGGSTYFASWAKGLFTISKTSSTTVDLQMTSLTTEDTATYFCARGWSRHDFWGPGTLVTVSS
# VL: DVVMTQTPASVSEPVGGTVTIKCQASQSISNILAWYQQKPGQPPRLLIYSASTLASGVSSRFKASGSGTEFTLTISDLECADAATYYCQGYDSTVGVGAFGGGTEVVVK
# notes: Rabbit monoclonal antibody; also called 151H1/151L1
# Target: T1, CD40 protein displayed on cell surface (UniProt P25942 21-277, limits assumed)
# T1 sequence (P25942 21-277 limits assumed): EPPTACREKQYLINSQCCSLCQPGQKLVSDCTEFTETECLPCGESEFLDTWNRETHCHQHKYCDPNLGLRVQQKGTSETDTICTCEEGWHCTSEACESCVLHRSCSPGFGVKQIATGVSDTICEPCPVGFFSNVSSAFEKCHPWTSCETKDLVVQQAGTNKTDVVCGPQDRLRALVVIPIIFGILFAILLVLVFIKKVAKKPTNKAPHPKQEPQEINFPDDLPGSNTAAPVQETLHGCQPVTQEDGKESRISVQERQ
# Assay: cell-based or functional assay
"EC50 in activating B cell assessed by CD80 expression (CD19+ cells, flow cytometry) [nM]","EC50 in activating B cell assessed by CD86 expression (CD19+ cells, flow cytometry) [nM]",EC50 in activating MoDC assessed by CD86 expression [nM],EC50 in activating monocyte derived dendritic cell (MoDC) assessed by CD80 expression [nM],"EC50 of CD40 activation, SEAP activity (Quanti-Blue, absorbance at 650 nm) of HEKBlue CD40L reporter cells [nM]",Binder
0.17,0.14,22,29,8,B1
0.0027,0.0015,1.3,0.74,0.34,B2
0.41,0.021,1.7,1.6,10,B3

# Target: T1, CD40 protein displayed on cell surface
# Assay: binding to CD40-expressing cell; method not described
row,binding result,Binder
1,binds,B4
2,binds,B5

# Target: T2, recombinant CD40 ECD-Fc fusion protein (UniProt P25942 21-193, limits assumed, biotinylated (site not stated))
# T2 construct: extracellular domain; also called biotinylated CD40 ECD-Fc; not shown: Fc
# T2 sequence (P25942 21-193 limits assumed): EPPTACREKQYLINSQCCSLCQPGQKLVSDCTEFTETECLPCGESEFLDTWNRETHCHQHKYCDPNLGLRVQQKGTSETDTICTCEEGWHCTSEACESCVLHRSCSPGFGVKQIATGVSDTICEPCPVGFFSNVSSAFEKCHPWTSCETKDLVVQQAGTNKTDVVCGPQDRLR
# Assay: BLI (Octet), biotinylated CD40 ECD-Fc captured on streptavidin probe, antibody in solution
# Procedure: Binding affinity to recombinant CD40 ECD-Fc fusion protein were determined using Bio-Layer Interferometry (BLI) on Octet system. Briefly, biotinylated CD40 ECD-Fc were captured by streptavidin probe and the antibody association/dissociation were measured with light interferometry in realtime. KD were then calculated by Kₒₙ and Koff.
row,Kd [nM],Binder
1,0.012,B6
2,0.377,B1
3,0.42,B7
4,0.084,B8
5,0.00604,B2
6,0.041,B3

# Target: T1, CD40 protein displayed on cell surface
# Assay: flow cytometry on HEKBlue CD40L reporter cells, fluorescent secondary antibody, median fluorescence intensity
# Source text: (§1) HEKBlue CD40L reporter cells were harvested and stained with anti-CD40 and fluorescent secondary antibodies. Antibodies binding are shown in median fluorescence intensity.
row,EC50 [nM],Binder
1,0.63,B1
2,0.36,B2
3,0.82,B3

# Target: T1, CD40 protein displayed on cell surface
# Assay: flow cytometry on HEKBlue CD40L reporter cells, fluorescent secondary antibody, median fluorescence
# Source text: as §1
row,EC50 [µg/mL],Binder
1,0.0945,B1
2,0.0541,B2
3,0.123,B3
